The target in one experiment is HLA-A*02:03. The experiment in a line: IEDB peptide-MHC binding, purified MHC/direct/fluorescence; filed as Kd, often an IC50 or EC50 that approximates it; ≥ and ≤ were set here for values at or beyond the usual limits of such assays.
Another experiment has as its target HLA-A*02:11. The description is as above.
For the next experiment, the target named is HLA-A*02:12. The experiment is described as above.
The target of the next experiment is HLA-A*02:16. Described as above.
The next experiment has as its target HLA-A*02:19. Described as above.
A further experiment has as its target HLA-A*03:01. The description is as above.
Experiment [1] concerns the target HLA-A*23:01. The description is as above.
The target in experiment [2] is HLA-A*24:03. Described as above.
For experiment [3], the target named is HLA-A*29:02. The experiment is described as above.
Experiment [4] has as its target HLA-A*68:02. The experiment is described as above.
The next experiment concerns the target HLA-B*40:01. The experiment is described as above.
The target of experiment [5] is HLA-A*02:01. The experiment in a line: IEDB peptide-MHC binding, purified MHC/competitive/fluorescence; filed as Kd, often an IC50 or EC50 that approximates it; ≥ and ≤ were set here for values at or beyond the usual limits of such assays.
For experiment [6], the target named is HLA-A*26:01. The description is as above.
Another experiment deals with HLA-A*69:01. The description is as above.
The target in experiment [7] is HLA-B*15:01. The experiment is described as above.
The next experiment concerns the target HLA-B*15:17. The experiment is described as above. The following applies: source organism: Zaire ebolavirus.
The target in the next experiment is HLA-B*27:03. Described as above.
The target of a further experiment is HLA-B*39:01. The experiment is described as above.
Another experiment has as its target HLA-B*46:01. The experiment is described as above.
The next experiment deals with HLA-B*51:01. Described as above.
Another experiment concerns the target HLA-B*57:01. The experiment is described as above.
Experiment [8] has as its target HLA-A*24:03. The description is as above.
A further experiment concerns the target HLA-A*01:01. The experiment is described as above.
Experiment [9] concerns the target HLA-A*23:01. Briefly: IEDB peptide-MHC binding, purified MHC/competitive/radioactivity; filed as Kd, often an IC50 or EC50 that approximates it; ≥ and ≤ were set here for values at or beyond the usual limits of such assays. The following applies: source organism: Vaccinia virus WR.
For experiment [10], the target named is HLA-A*24:02. The description is as above. The conditions noted are these: source organism: Vaccinia virus WR.
Experiment [11] addresses HLA-B*15:01. Briefly: IEDB peptide-MHC binding, purified MHC/direct/fluorescence; filed as Kd, often an IC50 or EC50 that approximates it; ≥ and ≤ were set here for values at or beyond the usual limits of such assays. The following applies: source organism: Reston ebolavirus - Reston.
For another experiment, the target named is HLA-B*18:01. Briefly: IEDB peptide-MHC binding, purified MHC/competitive/fluorescence; filed as Kd, often an IC50 or EC50 that approximates it; ≥ and ≤ were set here for values at or beyond the usual limits of such assays.
Experiment [12] deals with HLA-A*29:02. The description is as above.
In experiment [13] the target is HLA-A*24:02. Briefly: IEDB peptide-MHC binding, purified MHC/competitive/fluorescence; ≥ and ≤ were set here for values at or beyond the usual limits of such assays. The conditions noted are these: source organism: Zaire ebolavirus.
For a further experiment, the target named is HLA-B*08:01. The description is as above.
Experiment [14] addresses HLA-A*68:02. Briefly: IEDB peptide-MHC binding, purified MHC/competitive/fluorescence; filed as Kd, often an IC50 or EC50 that approximates it; ≥ and ≤ were set here for values at or beyond the usual limits of such assays. The following applies: source organism: Rickettsia sibirica 246.
Experiment [15] addresses HLA-A*02:01. The experiment in a line: IEDB peptide-MHC binding, purified MHC/competitive/fluorescence; ≥ and ≤ were set here for values at or beyond the usual limits of such assays. The conditions noted are these: source organism: Vaccinia virus Copenhagen.
Experiment [16] has as its target HLA-A*26:01. Briefly: IEDB peptide-MHC binding, purified MHC/direct/fluorescence; filed as Kd, often an IC50 or EC50 that approximates it; ≥ and ≤ were set here for values at or beyond the usual limits of such assays. The conditions noted are these: source organism: Orthohantavirus andesense.
The mark [17] stands for this setting: source organism: Zaire ebolavirus.
Where [18] appears, read: source organism: Orthohantavirus tulaense.
Setting [19] is: source organism: Orthohantavirus andesense.

One may read the Kd as the free concentration of one partner at which half of the binding sites on the other are occupied at equilibrium, for simple one-to-one binding. For the sequence DETFVHSGF, the Kd with HLA-A*02:03 (setting [17]), with HLA-A*02:11 (setting [17]), in the experiment with HLA-A*02:12 (setting [17]), in the experiment with HLA-A*02:16 (setting [17]), with HLA-A*02:19 (setting [17]) and with HLA-A*03:01 (setting [17]) was at least 20 µM throughout. Besides, the Kd is at least 20 µM in the experiment with HLA-A*23:01 [1] (setting [17]); at least 20 µM with HLA-A*24:03 [2] (setting [17]); at least 20 µM in the experiment with HLA-A*29:02 [3] (setting [17]); at least 20 µM in the experiment with HLA-A*68:02 [4] (setting [17]); at least 20000 nM with HLA-B*40:01 (source organism: Sudan ebolavirus - Maleo (1979)); at least 20 µM with HLA-A*02:01 [5] (setting [17]). Also, the Kd with HLA-A*26:01 [6] (setting [17]), with HLA-A*69:01 (setting [17]), with HLA-B*15:01 [7] (setting [17]), in the experiment with HLA-B*15:17, with HLA-B*27:03 (setting [17]) and in the experiment with HLA-B*39:01 (setting [17]) was at least 20 µM throughout. The Kd with HLA-B*46:01 (setting [17]), with HLA-B*51:01 (setting [17]) and with HLA-B*57:01 (setting [17]) was at least 20 µM throughout.
For PYKIPATVI, in the experiment with HLA-A*24:03 [8] (source organism: Escherichia coli 536), the Kd was found to be 1060 nM.
VTDTNKFDNY: the Kd in the experiment with HLA-A*01:01 (source organism: Vaccinia virus WR) is 4.9 nM; with HLA-A*23:01 [9], at least 70 µM; in the experiment with HLA-A*24:02 [10], at least 70.3 µM.
With WQQWDRQSL, the Kd in the experiment with HLA-A*02:03 (setting [17]), with HLA-A*02:11 (setting [17]), in the experiment with HLA-A*02:12 (setting [17]), in the experiment with HLA-A*02:16 (setting [17]), with HLA-A*02:19 (setting [17]) and in the experiment with HLA-A*03:01 (setting [17]) was at least 20 µM throughout. For the same sequence, the Kd with HLA-A*23:01 [1] (setting [17]) is at least 20 µM; in the experiment with HLA-A*24:03 [2] (setting [17]), at least 20 µM; in the experiment with HLA-A*29:02 [3] (setting [17]), at least 20 µM; with HLA-A*68:02 [4] (setting [17]), at least 20 µM; in the experiment with HLA-B*15:01 [11], 127 nM; with HLA-A*02:01 [5] (setting [17]), at least 20 µM. Further, the Kd with HLA-A*26:01 [6] (setting [17]), with HLA-A*69:01 (setting [17]), with HLA-B*15:17, with HLA-B*18:01 (setting [17]), with HLA-B*27:03 (setting [17]) and in the experiment with HLA-B*46:01 (setting [17]) was at least 20 µM in each case. Moreover, the Kd in the experiment with HLA-B*51:01 (setting [17]) and with HLA-B*57:01 (setting [17]) was at least 20 µM in each case.
With AESICSYWL, the Kd in the experiment with HLA-A*02:03 (setting [18]), with HLA-A*02:11 (setting [18]), with HLA-A*02:12 (setting [18]), in the experiment with HLA-A*02:16 (setting [18]), in the experiment with HLA-A*02:19 (setting [18]) and with HLA-A*03:01 (setting [18]) was at least 20 µM each time. Besides, the Kd in the experiment with HLA-A*24:03 [2] (setting [18]) is at least 20 µM; with HLA-A*29:02 [3] (setting [18]) it was at least 20 µM; in the experiment with HLA-B*40:01 (source organism: Orthohantavirus puumalaense), 0.3 nM; with HLA-A*26:01 [6] (setting [18]), at least 20 µM; with HLA-B*15:01 [7] (setting [18]), at least 20 µM; in the experiment with HLA-B*18:01 (setting [18]), at least 20 µM. Further, the Kd in the experiment with HLA-B*27:03 (setting [18]), with HLA-B*39:01 (setting [18]), in the experiment with HLA-B*46:01 (setting [18]), with HLA-B*51:01 (setting [18]) and with HLA-B*57:01 (setting [18]) was at least 20 µM in each case.
With QVSRPMFLY, the Kd with HLA-A*01:01 (source organism: Influenza A virus (A/X-31(H3N2))) was at least 20000 nM.
In the case of SWNNHSYLY, the dissociation constant (Kd) in the experiment with HLA-A*01:01 (source organism: Mus musculus) is 4280 nM; with HLA-A*29:02 [12] (source organism: Mus musculus), at most 0.1 nM.
For DWMDRIEEF, the Kd with HLA-A*02:03 (source organism: Maporal virus), in the experiment with HLA-A*02:11 (source organism: Maporal virus), in the experiment with HLA-A*02:12 (source organism: Maporal virus), with HLA-A*02:16 (source organism: Maporal virus), with HLA-A*02:19 (source organism: Maporal virus) and with HLA-A*03:01 (source organism: Maporal virus) was at least 20 µM each time. Further, the Kd is at least 20 µM with HLA-A*29:02 [3] (source organism: Maporal virus); at least 20 µM with HLA-A*02:01 [5] (setting [19]); 156 nM with HLA-A*24:03 [8] (setting [19]); at least 20 µM with HLA-A*26:01 [6] (setting [19]); at least 20 µM with HLA-A*69:01 (setting [19]); at least 20 µM in the experiment with HLA-B*18:01 (setting [19]). In addition, the Kd with HLA-B*27:03 (setting [19]), with HLA-B*39:01 (setting [19]), in the experiment with HLA-B*46:01 (setting [19]), with HLA-B*51:01 (setting [19]) and with HLA-B*57:01 (setting [19]) was at least 20 µM throughout.
Broadly, the IC50 is the concentration at which inhibition is half-maximal. For NFHQKKNEI, the concentration for half-maximal inhibition (IC50) with HLA-A*24:02 [13] was found to be 8.08 µM; in the experiment with HLA-B*08:01 (setting [17]) it was 66.1 µM.
FIHFDHVPI showed a Kd with HLA-A*68:02 [14] of 24.7 nM.
Consider FALKKLIID, for which the IC50 with HLA-A*02:01 [15] was at least 161 µM; with HLA-B*08:01 (source organism: Vaccinia virus Copenhagen) it was at least 211 µM.
In the experiment with HLA-A*01:01 (source organism: Bacillus cereus G9241), LTMDREMLY returned a Kd of 5.1 nM.
As for DSRPQKIWM, the IC50 in the experiment with HLA-B*08:01 (setting [17]) was at least 95.4 µM.
Consider EVLKAMSLY, for which the equilibrium dissociation constant (Kd) with HLA-A*02:03 (setting [19]), with HLA-A*02:11 (setting [19]), in the experiment with HLA-A*02:12 (setting [19]), in the experiment with HLA-A*02:19 (setting [19]), with HLA-A*03:01 (setting [19]) and with HLA-A*23:01 [1] (setting [19]) was at least 20 µM in each case. Further, the dissociation constant Kd in the experiment with HLA-A*24:03 [2] (setting [19]) was at least 20 µM; with HLA-A*26:01 [16], 3.9 nM; with HLA-A*68:02 [4] (setting [19]), at least 20 µM; in the experiment with HLA-A*02:01 [5] (setting [19]), at least 20 µM; with HLA-B*27:03 (setting [19]) it was at least 20 µM; with HLA-B*39:01 (setting [19]), at least 20 µM. The Kd with HLA-B*46:01 (setting [19]), in the experiment with HLA-B*51:01 (setting [19]) and with HLA-B*57:01 (setting [19]) was at least 20 µM throughout.
In turn, AWISSMLLY gave a Kd with HLA-A*29:02 [12] (source organism: Brucella suis ATCC 23445) of 0.2 nM.
For QFLAPDDRY, the Kd in the experiment with HLA-A*29:02 [12] (source organism: Vibrio cholerae 2740-80) came out at 3.2 nM.
Regarding FEEMYRHIL, the IC50 is 25.8 µM in the experiment with HLA-A*24:02 [13] and at least 81.4 µM with HLA-B*08:01 (setting [17]).
